Reference: patent US20230192881A1 (EDESA BIOTECH RESEARCH, published 2023)
Positions count from the first letter of the chain named. Several values for one entry are separate records, joined by “and”; a condition that tells them apart may be missing. Equal entries are not always repeated. Blank lines part the entries; values can stand above or below the binder they belong to.

Legend:
[1] = target: T1, human TLR4 (human, UniProt O00206 24-839); assay: KinExA
T1 construct: also called hTLR4; Toll-like Receptor 4

[2] = target: T1, human TLR4; assay: KinExA combined with ELISA, average Kd
[3] = target: T2, human FcγRIIa 131H (human, UniProt P12318 36-218, limits assumed); assay: surface plasmon resonance
T2 sequence (looked up): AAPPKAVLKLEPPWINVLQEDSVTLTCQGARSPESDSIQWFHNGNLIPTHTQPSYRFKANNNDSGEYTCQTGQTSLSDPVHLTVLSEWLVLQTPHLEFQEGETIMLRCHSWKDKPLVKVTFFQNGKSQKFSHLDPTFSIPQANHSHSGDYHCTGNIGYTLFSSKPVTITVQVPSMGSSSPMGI

[4] = target: T3, human FcγRIIa 131R (human, UniProt P12318 36-218, limits assumed); assay: surface plasmon resonance
T3 sequence (looked up): T2 sequence (looked up) with H132R

[5] = target: T4, human FcγRI (human, UniProt P12314 16-288, limits assumed); assay: surface plasmon resonance
T4 construct: also called CD64; FcyRI

[6] = target: T5, human FcγRIIb (human, UniProt P31994 43-217, limits assumed); assay: surface plasmon resonance
T5 construct: also called CD32b
T5 sequence (looked up): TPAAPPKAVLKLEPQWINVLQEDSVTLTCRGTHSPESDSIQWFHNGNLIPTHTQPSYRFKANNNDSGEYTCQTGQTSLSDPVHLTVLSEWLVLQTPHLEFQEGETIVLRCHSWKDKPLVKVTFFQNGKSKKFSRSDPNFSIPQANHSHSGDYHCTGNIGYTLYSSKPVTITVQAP

[7] = target: T1, human TLR4; assay: cell-based or functional assay
[8] = target: T1, human TLR4; assay: cell-based or functional assay; remark: listed apart in the source
[9] = target: T3, human FcγRIIa 131R; assay: surface plasmon resonance (refers to Table 9)
[10] = target: T6, mouse FcRn (mouse, UniProt Q61559 22-297; P01887 21-119, limits assumed); assay: method not stated
T6 construct: also called mFcRn
T6 sequence (looked up) 1: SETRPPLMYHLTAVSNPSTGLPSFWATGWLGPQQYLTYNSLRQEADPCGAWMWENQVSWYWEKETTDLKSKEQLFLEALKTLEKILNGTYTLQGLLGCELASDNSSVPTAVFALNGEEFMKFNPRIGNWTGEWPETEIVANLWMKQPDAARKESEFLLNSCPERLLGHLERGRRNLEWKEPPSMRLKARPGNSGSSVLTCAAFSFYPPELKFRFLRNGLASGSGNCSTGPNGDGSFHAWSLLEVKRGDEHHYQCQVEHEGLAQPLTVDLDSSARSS
T6 sequence (looked up) 2: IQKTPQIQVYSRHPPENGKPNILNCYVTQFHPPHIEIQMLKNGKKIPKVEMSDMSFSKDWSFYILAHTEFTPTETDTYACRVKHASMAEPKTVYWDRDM

[11] = target: T7, mouse FcγRIII (mouse, UniProt P08508 31-215, limits assumed); assay: method not stated
T7 construct: also called mFcγRIII
T7 sequence (looked up): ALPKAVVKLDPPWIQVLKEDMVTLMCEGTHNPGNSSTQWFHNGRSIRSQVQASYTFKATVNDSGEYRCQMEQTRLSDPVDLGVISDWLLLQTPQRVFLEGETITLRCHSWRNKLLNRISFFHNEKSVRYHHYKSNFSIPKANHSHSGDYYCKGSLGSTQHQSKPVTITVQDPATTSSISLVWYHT

[12] = target: T8, mouse FcγRIV (mouse, UniProt A0A0B4J1G0 21-203); assay: method not stated
T8 construct: also called mFcγRIV
T8 sequence: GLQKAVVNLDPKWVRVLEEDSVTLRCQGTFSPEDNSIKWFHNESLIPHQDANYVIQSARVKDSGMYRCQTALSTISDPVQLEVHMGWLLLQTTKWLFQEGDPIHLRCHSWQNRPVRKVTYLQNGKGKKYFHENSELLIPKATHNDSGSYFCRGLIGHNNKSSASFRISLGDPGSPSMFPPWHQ

[13] = target: T9, mouse FcγRI (mouse, UniProt P26151 25-297, limits assumed); assay: method not stated
T9 construct: also called mFcγRI; mouse FcyRI
T9 sequence (looked up): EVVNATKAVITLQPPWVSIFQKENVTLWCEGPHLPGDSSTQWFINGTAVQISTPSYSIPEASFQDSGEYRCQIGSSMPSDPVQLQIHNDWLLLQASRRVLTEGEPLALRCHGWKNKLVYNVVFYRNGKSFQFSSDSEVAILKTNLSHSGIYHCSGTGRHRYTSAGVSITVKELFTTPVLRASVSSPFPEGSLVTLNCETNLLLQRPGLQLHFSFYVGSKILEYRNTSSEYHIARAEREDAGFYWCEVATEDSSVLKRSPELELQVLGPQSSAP

[14] = target: T10, mouse FcγRII (mouse, UniProt P08101 30-210, limits assumed); assay: method not stated
T10 construct: also called mFcγRII; mouse FcyRII
T10 sequence (looked up): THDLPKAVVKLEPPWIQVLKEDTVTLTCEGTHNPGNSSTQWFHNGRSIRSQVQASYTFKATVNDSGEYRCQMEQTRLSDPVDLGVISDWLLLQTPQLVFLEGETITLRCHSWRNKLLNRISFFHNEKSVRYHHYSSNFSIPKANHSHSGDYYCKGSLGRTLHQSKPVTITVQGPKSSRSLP

[15] = target: T11, mouse TLR4 (mouse, UniProt Q9QUK6 26-629, limits assumed); assay: method not stated, average Kd
T11 sequence (looked up): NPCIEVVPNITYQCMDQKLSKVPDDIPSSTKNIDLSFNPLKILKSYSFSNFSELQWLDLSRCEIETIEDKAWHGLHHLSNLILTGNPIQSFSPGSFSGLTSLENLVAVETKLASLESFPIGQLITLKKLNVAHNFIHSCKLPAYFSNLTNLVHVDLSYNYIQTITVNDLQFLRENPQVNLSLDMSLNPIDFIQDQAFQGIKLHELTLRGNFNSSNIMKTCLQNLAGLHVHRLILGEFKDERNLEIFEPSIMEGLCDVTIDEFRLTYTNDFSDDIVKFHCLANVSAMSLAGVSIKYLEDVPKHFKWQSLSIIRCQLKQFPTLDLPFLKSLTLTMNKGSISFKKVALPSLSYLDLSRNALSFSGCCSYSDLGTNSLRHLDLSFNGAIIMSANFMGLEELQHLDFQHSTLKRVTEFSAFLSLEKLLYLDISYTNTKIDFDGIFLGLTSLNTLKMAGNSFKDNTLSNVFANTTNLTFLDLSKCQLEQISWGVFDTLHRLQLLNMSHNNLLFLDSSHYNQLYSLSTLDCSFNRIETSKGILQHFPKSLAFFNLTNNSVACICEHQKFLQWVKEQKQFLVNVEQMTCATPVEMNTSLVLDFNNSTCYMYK

[16] = target: T11, mouse TLR4; assay: cell-based or functional assay

T1 sequence (O00206 24-839 limits assumed): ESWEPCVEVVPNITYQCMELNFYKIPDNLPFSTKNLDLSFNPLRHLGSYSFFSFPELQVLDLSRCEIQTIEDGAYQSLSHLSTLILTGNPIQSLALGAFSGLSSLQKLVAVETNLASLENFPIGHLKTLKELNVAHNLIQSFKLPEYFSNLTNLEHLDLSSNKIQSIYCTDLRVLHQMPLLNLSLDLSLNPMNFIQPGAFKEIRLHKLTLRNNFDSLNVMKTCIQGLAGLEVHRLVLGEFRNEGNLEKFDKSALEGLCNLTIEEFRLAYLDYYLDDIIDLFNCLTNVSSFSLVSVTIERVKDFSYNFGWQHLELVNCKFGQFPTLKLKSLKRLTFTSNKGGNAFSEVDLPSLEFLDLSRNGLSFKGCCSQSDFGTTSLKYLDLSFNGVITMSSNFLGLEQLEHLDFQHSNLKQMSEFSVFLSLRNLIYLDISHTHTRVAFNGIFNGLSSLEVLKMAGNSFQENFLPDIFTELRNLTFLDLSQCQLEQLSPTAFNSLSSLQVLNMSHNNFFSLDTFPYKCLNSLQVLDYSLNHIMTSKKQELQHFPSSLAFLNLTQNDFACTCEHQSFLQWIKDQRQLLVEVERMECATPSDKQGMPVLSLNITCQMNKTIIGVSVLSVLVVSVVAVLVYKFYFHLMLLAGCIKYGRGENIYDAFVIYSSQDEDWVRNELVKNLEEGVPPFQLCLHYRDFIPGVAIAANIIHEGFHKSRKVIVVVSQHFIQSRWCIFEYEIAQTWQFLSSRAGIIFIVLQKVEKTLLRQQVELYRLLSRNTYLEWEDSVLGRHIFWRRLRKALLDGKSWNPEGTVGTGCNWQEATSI
T4 sequence (P12314 16-288 limits assumed): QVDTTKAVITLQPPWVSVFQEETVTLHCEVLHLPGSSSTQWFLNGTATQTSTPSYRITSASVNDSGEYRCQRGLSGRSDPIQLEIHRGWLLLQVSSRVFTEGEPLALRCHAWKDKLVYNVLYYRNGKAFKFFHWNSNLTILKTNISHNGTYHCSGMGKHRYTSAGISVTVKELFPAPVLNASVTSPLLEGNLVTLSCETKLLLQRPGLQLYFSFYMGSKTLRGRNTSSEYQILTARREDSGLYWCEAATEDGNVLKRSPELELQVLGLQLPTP

Kd [1]: 0.139 nM
B1: Hu 15C1 (antibody, V domains shown)
VH: QVQLQESGPGLVKPSDTLSLTCAVSGYSITGGYSWHWIRQPPGKGLEWMGYIHYSGYTDFNPSLKTRITISRDTSKNQFSLKLSSVTAVDTAVYYCARKDPSDAFPYWGQGTLVTVSS
VL: EIVLTQSPDFQSVTPKEKVTITCRASQSISDHLHWYQQKPDQSPKLLIKYASHAISGVPSRFSGSGSGTDFTLTINSLEAEDAATYYCQQGHSFPLTFGGGTKVEIK
notes: the rest is a non-mutated human IgG1 Fc

Kd [2]: 0.139 nM
Kd [3]: 311 nM
Kd [4]: 151 nM
Kd [5]: 47.3 nM
Kd [6]: 870 nM
IC50, LPS mediated cytokine production in human primary macrophages [7]: 0.0104 nM
IC50, LPS-induced IL-6 release in THP1 cells (FcγRIIa 131HH) [7]: 0.0027 nM
IC50, LPS-induced IL-6 release in U937 cells (FcγRIIa 131RR) [7]: 0.002 nM
IC50, LPS-induced IL-6 release in human whole blood, FcγRIIa 131HH donors [7]: 2.19 nM
IC50, LPS-induced IL-6 release in human whole blood, FcγRIIa 131RH donors [7]: 0.223 nM
IC50, LPS-induced IL-6 release in human whole blood, FcγRIIa 131RR donors [7]: 0.128 nM
IC50, Tenascin-C mediated cytokine production in human primary macrophages [7]: 0.022 nM
IC50, nickel mediated cytokine production in human primary macrophages [7]: 0.015 nM
IC50, Blockade of LPS induced TLR4 signalling, human whole blood (FcγRIIaHH) [8]: 2.19 nM and 324 ng/mL
fold higher affinity than to the 131H variant [9]: 2 fold
B2: NI-0101 (antibody, human IgG1, kappa)
heavy: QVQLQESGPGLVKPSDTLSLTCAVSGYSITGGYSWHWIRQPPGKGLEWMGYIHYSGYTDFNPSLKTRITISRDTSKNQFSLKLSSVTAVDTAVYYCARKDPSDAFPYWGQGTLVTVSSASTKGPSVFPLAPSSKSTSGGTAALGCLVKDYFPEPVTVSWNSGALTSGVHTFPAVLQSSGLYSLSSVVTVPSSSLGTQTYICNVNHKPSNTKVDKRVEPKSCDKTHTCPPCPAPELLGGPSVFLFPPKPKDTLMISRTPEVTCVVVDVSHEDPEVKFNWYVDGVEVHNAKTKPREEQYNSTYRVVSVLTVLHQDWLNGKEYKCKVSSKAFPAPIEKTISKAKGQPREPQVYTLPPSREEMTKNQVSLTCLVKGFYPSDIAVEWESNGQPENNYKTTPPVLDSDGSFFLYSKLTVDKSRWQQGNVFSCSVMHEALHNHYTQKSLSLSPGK
light: EIVLTQSPDFQSVTPKEKVTITCRASQSISDHLHWYQQKPDQSPKLLIKYASHAISGVPSRFSGSGSGTDFTLTINSLEAEDAATYYCQQGHSFPLTFGGGTKVEIKRTVAAPSVFIFPPSDEQLKSGTASVVCLLNNFYPREAKVQWKVDNALQSGNSQESVTEQDSKDSTYSLSSTLTLSKADYEKHKVYACEVTHQGLSSPVTKSFNRGEC

Kd [10]: 2.93 nM
Kd [11]: 505 nM
Kd [12]: 113 nM
Kd [13]: 50.8 nM
Kd [14]: 3260 nM
Kd [15]: 0.027 nM
IC50, Blockade of LPS induced TLR4 signalling, mouse whole blood [16]: 1.16 nM and 173 ng/mL
B3: 5E3 (antibody, mouse IgG2a, kappa)
heavy: QIQLVQSGPELKKPGESVKISCKASGYTFTDYVMYWVKQAPGKGLKWMGWINTNTGKPTYADDFKGRFVFSLEASASTANLQISNLKNEDTATYFCTRGNYPGLRVMDAWGQGASVTVSSAKTTAPSVYPLAPVCGDTTGSSVTLGCLVKGYFPEPVTLTWNSGSLSSGVHTFPAVLQSDLYTLSSSVTVTSSTWPSQSITCNVAHPASSTKVDKKIEPRGPTIKPCPPCKCPAPNLLGGPSVFIFPPKIKDVLMISLSPIVTCVVVDVSEDDPDVQISWFVNNVEVHTAQTQTHREDYNSTLRVVSALPIQHQDWMSGKEFKCKVNNKDLPAPIERTISKPKGSVRAPQVYVLPPPEEEMTKKQVTLTCMVTDFMPEDIYVEWTNNGKTELNYKNTEPVLDSDGSYFMYSKLRVEKKNWVERNSYSCSVVHEGLHNHHTTKSFSRTPGK
light: DIQMTQSPSSMSVSLGDTVTITCRASQDVGIYVNWFQQKPGKSPRRLIFRATNLADGVPSRFSGSRSGSDYSLTISSLGSEDVAGYHCLQYDEYPLTFGSGTKLEIKRADAAPTVSIFPPSSEQLTSGGASVVCFLNNFYPKDINVKWKIDGSERQNGVLNSWTDQDSKDSTYSMSSTLTLTKDEYERHNSYTCEATHKTSTSPIVKSFNRNEC
notes: Chimeric anti-mouse TLR4 mAb: rat variable regions grafted onto a mouse IgG2a kappa Fc
